Holding throughout (experiment): SPR
Conditions in all cases: EMSA: 10 mM Tris-HCl pH 7.5, 50 mM KCl, 1 mM DTT, 0.4% glycerol, 20 uL, 28 C, 25-30 min; 5% native gel, 0.5x TBE, 4 C; SPR conditions not given
Background: Mobility shift assays separate free from complexed probe on a gel.

The subject of data set [1] is HtsH1C-Flag-His (Lysobacter enzymogenes OH11).
Data set [2] concerns HtsH2C-HA-His (Lysobacter enzymogenes OH11).
Data set [3] deals with HtsH3C-Myc-His (Lysobacter enzymogenes OH11).

One may read the Kd as the constant that tells how readily two partners part at equilibrium. Lower therefore signals higher affinity. Regarding plafB (SPR), the Kd is 536 nM in data set [1], 1380 nM in data set [2] and 249 nM in data set [3].
